Biological target: CD20 on ARH-77 tumor cells (CD20+ plasma cell leukemia cell line, ATCC CRL-1621) (human) (UniProt P11836)
Assay: cell-based or functional assay

Sequence of UniProt P11836 (P11836 whole entry): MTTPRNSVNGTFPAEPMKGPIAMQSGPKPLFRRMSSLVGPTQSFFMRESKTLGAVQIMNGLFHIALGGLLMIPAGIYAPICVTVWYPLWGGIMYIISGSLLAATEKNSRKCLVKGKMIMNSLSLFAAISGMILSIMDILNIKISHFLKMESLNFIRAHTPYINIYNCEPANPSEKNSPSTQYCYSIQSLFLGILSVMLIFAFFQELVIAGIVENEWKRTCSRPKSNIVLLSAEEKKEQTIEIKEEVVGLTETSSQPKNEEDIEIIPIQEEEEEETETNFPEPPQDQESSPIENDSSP

## obinutuzumab (antibody)
  AB-101 killing activity (ADCC, 4 hour caspase assay against ARH-77 cells): 66 fold
